Test results from patent publication US20240052042A1 (Novartis, published 2024).

What was measured:
[1] = biological target: T1, rat NPR1 (rNPR1) (rat, UniProt P18910 29-469, limits assumed); experiment: ELISA, 1 µM IgG; set-up: unit not given here
T1 construct: Soluble antigen
T1 sequence: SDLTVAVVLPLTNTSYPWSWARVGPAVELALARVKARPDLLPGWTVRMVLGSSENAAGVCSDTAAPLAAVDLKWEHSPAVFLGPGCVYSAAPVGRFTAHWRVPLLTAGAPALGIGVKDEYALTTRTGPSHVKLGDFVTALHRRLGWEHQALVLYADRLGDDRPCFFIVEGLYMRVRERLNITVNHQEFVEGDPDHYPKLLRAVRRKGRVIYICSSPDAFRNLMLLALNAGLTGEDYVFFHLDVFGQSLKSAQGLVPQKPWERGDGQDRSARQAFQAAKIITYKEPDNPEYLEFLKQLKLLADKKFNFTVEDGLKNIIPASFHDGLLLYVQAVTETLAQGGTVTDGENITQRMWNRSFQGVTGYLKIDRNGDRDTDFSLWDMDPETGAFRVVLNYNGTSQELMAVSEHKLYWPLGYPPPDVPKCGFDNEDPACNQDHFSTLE

[2] = biological target: T2, hNPR1-ANP complex (human, UniProt P01160 124-151, limits assumed); experiment: ELISA, 1 µM IgG; set-up: unit not given here
T2 construct: hNPR1 antigen in the presence of ANP; also called hNPR1 + 100 nM ANP
T2 sequence: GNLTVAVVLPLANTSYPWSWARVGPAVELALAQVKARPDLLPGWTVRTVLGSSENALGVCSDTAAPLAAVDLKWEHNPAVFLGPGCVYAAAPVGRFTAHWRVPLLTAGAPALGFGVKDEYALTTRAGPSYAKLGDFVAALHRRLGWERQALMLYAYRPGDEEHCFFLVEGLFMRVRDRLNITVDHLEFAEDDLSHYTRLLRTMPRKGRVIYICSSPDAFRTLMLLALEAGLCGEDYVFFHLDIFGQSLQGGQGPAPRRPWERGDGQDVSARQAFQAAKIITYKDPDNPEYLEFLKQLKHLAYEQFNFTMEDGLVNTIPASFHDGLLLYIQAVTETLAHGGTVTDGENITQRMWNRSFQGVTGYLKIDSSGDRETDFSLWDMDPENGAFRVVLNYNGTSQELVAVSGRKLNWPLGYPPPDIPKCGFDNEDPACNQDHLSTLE
T2 sequence (peptide): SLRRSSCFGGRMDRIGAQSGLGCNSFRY

[3] = biological target: T3, human NPR3 (counter target) (human, UniProt P17342 27-481, limits assumed); experiment: ELISA, 1 µM IgG; set-up: unit not given here
T3 construct: Pannings used hNPR3-hFc; also called hNPR3; hNPR3-hFc
T3 sequence (looked up): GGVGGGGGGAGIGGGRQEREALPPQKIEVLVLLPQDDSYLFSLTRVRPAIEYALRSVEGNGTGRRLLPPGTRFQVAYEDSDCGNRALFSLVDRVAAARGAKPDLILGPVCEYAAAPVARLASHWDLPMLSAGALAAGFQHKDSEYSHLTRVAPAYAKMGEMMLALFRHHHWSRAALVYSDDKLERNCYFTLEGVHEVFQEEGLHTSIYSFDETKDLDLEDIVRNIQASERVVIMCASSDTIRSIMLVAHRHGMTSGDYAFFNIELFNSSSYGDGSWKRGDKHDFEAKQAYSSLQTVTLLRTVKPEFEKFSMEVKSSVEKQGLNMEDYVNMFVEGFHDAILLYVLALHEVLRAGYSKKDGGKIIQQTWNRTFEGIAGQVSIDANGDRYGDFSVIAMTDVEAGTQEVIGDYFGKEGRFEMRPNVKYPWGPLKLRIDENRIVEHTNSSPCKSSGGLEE

[4] = biological target: T4, human Natriuretic Peptide Receptor 1 (hNPR1) (human, UniProt P16066 33-473, limits assumed); experiment: ELISA, 1 µM IgG; set-up: unit not given here
T4 construct: pannings used NPR1-hFc; also called NPR1-hFc
T4 sequence: T2 sequence

[5] = biological target: T5, human NPR3 in the presence of ANP (human, UniProt P17342 27-481; P01160 124-151, limits assumed); experiment: ELISA, 1 µM IgG; set-up: unit not given here
T5 construct: also called hNPR3 + 100 nM ANP
T5 sequence (looked up): T3 sequence (looked up)
T5 sequence (peptide, looked up): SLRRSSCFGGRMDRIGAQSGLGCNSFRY

[6] = biological target: T6, human NPR1 on CHO-K1 cells (human, UniProt P16066 33-1061); experiment: cell-based or functional assay
T6 sequence: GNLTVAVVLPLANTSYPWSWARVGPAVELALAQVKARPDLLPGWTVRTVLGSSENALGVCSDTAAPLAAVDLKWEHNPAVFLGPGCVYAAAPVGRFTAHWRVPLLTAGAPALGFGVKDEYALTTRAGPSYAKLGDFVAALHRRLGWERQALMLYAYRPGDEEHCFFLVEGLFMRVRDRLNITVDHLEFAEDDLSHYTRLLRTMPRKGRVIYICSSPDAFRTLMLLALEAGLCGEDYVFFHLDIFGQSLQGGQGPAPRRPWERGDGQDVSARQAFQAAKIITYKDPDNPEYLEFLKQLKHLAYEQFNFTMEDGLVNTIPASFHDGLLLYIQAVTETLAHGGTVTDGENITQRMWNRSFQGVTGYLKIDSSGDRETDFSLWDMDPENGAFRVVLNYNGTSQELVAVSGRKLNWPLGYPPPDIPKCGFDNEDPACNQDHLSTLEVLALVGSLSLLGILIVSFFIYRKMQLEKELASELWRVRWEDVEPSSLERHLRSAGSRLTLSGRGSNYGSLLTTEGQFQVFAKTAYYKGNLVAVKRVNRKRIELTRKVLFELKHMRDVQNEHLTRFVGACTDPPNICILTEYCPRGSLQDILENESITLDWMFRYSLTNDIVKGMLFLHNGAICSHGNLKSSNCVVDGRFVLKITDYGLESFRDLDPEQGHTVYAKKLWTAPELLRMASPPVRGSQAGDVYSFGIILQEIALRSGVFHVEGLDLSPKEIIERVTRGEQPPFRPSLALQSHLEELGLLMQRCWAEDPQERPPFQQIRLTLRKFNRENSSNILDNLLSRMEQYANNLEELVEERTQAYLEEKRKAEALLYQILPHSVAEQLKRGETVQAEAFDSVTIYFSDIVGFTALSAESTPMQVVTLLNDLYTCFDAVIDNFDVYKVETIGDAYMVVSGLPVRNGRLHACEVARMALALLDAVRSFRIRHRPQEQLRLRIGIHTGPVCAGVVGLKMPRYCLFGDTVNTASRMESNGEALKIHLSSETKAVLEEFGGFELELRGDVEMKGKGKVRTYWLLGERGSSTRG

[7] = biological target: constitutively active human NPR1 mutant (W74R) (human) (UniProt P16066); experiment: ELISA, 1 µM IgG
[8] = biological target: W74R hNPR1 mutant in the presence of ANP (human) (UniProt P01160); experiment: ELISA, 1 µM IgG

B1: YY06 (IgG format) (antibody, V domains shown)
VH: EVQLLESGGGLVQPGGSLRLSCAASGFTFSSYAISWVRQAPGKGLEWVSAISGSGGSTYYAESVKGRFTISRDNSKNTLYLQMNSLRAEDTAVYYCARPYLGDRRSYGFDHWGQGTLVTVSS
VL: QSALTQPASVSGSPGQSITISCTGTSSDVGSYNLVSWYQQHPGKAPKLMIYEGSKRPSGVSNRFSGSKSGNTASLTISGLQAEDEADYYCSSYGFHIVVVVFGGGTKLTVLG
notes: also called YY06_LALA
ELISA binding at 1 µM IgG [1]: 3
ELISA binding at 1 µM IgG [2]: 102
ELISA binding at 1 µM IgG [3]: 6
ELISA binding at 1 µM IgG [4]: 91
ELISA binding at 1 µM IgG [5]: 6
cGMP conc [nM] at 1 µM IgG, +0.075 nM ANP [6]: 15 nM
cGMP conc [nM] at 1 µM IgG, without ANP [6]: 12 nM
ELISA binding at 1 µM IgG [7]: 83
ELISA binding at 1 µM IgG [8]: 86

B2: YY07 (IgG format) (antibody, V domains shown)
VH: EVQLVQSGAEVKKPGESLKISCKGSGYSFTSYWISWVRQMPGKGLEWMGIIYPGTSYTRYSPSFQGQVTISADKSISTAYLQWSSLKASDTAMYYCARGSLPGLLGFDHWGQGTLVTVSS
VL: QSVLTQPPSVSGAPGQRVTISCTGSSSNIGAGYDVHWYQQLPGTAPKLLIYGNSNRPNGVPDRFSGSKSGTSASLAITGLQAEDEADYYCQSYDSPTSSSVFGGGTKLTVLG
notes: also called YY07_LALA
ELISA binding at 1 µM IgG [1]: 3
ELISA binding at 1 µM IgG [2]: 24
ELISA binding at 1 µM IgG [3]: 6
ELISA binding at 1 µM IgG [4]: 68
ELISA binding at 1 µM IgG [5]: 5
cGMP conc [nM] at 1 µM IgG, +0.075 nM ANP [6]: 9 nM
cGMP conc [nM] at 1 µM IgG, without ANP [6]: 4 nM
ELISA binding at 1 µM IgG [7]: 53
ELISA binding at 1 µM IgG [8]: 20
